Measurements: article PMC3531806

Molecular target: T1, H1N1 WSN NP protein (nucleoprotein of influenza A/WSN/1933), wild type (influenza A virus A/WSN/1933 (H1N1)), P15682
T1 chain: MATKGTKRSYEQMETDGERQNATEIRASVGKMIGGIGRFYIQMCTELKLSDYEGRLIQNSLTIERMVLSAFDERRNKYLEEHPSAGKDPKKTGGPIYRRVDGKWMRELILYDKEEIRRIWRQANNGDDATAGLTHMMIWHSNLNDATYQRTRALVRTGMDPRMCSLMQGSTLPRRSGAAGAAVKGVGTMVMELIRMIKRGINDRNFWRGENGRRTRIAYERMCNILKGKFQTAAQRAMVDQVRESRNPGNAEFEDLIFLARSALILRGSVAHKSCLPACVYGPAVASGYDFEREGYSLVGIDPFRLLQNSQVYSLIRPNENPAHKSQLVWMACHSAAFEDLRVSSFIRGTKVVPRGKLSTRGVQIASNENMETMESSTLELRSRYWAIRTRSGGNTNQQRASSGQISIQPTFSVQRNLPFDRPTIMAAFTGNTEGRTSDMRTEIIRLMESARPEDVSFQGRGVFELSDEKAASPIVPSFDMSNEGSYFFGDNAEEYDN
Experiment: SEC
Conditions: remark: other sources report otherwise

B1: H1N1 WSN NP protein (nucleoprotein of influenza A/WSN/1933), wild type, P15682 1-498 (natural protein)
chain: T1 chain
- half-life (t1/2) of the dissociation of trimers to monomers: 10 h
- stoichiometry N: 3
